Non-standard residues stand in square brackets, D forms with d. *: point of attachment. Propanoyl(3-(3-pyridyl)) = O=C(CCc1cccnc1)*; Arg(Me) = CNC(=N)NCCC[C@H](N)C(=O)O; azaGly = NNC(=O)O
Legend:
[1] = biological target: T1, human OT7T175 (metastin receptor) (human, UniProt Q969F8 1-398); experiment: cell-based or functional assay
[2] = biological target: human OT7T175 (metastin receptor) (human) (UniProt Q969F8); experiment: cell-based or functional assay
[3] = biological target: human OT7T175 (metastin receptor) (human) (UniProt Q969F8); experiment: competition with Cy-5 metastin (40-54) on hOT7T175-CHO cells, FMAT
[4] = biological target: T1, human OT7T175 (metastin receptor); experiment: cell-based or functional assay; remark: listed apart in the source
[5] = biological target: T1, human OT7T175 (metastin receptor); experiment: cell-based or functional assay; remark: listed apart in the source
[6] = biological target: T1, human OT7T175 (metastin receptor); experiment: cell-based or functional assay; remark: listed apart in the source
[7] = biological target: T1, human OT7T175 (metastin receptor); experiment: competition with Cy-5 metastin (40-54) on hOT7T175-CHO cells, FMAT

T1 sequence (Q969F8 whole entry L364H): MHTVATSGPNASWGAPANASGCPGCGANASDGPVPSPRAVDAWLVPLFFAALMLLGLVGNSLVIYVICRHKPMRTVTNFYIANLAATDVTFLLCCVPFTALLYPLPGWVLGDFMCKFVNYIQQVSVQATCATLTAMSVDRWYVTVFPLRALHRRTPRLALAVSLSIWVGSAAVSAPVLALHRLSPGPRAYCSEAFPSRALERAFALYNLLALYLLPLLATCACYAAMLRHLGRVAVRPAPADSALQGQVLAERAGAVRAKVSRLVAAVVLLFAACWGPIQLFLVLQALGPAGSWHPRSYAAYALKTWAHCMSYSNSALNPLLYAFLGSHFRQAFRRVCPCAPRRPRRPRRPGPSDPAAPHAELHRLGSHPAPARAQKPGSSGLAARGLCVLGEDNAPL
Sequence of human OT7T175 (metastin receptor) (human) (Q969F8 whole entry L364H): as above

For des(4-5)-Boc-MS10 (peptide), the Ca ion level-increasing activity (FLIPR) (x Metastin (1-54)) [1] was 1.

For “[D-Tyr1,D-Asn2,D-Trp3,AzaGly7,Arg(Me)9]MS10 (peptide)”, the Ca ion level-increasing activity (FLIPR) (x Metastin (1-54)) [2] was 1 and the IC50 [3] was 49 nM.

For “[D-Tyr1,D-Asn2,D-Trp3,Arg(Me)9]MS10 (peptide)”, the Ca ion level-increasing activity (FLIPR) (x Metastin (1-54)) [2] was 1.

des(4-5)-MS10 (peptide) gave a Ca ion level-increasing activity (FLIPR) (x Metastin (1-54)) [1] of 1.

B1: des(1-3)-3-(3-Pyridyl)propionyl-[AzaGly7,Arg(Me)9]MS10 (peptide)
peptide: {Propanoyl(3-(3-pyridyl))}-NSF[azaGly]L[Arg(Me)]F-NH2
SMILES: CNC(=N)NCCC[C@H](NC(=O)[C@H](CC(C)C)NC(=O)NNC(=O)[C@H](Cc1ccccc1)NC(=O)[C@H](CO)NC(=O)[C@H](CC(N)=O)NC(=O)CCc1cccnc1)C(=O)N[C@@H](Cc1ccccc1)C(N)=O
notes: also called Compound No. 322
In the case of B1, the “Ca ion level-increasing activity (FLIPR)” value [4] is reported as 1 x Metastin (1-54), the “Ca ion level-increasing activity (FLIPR, 40 s)” value [5] is reported as 5.4 EC50/MS10 EC50 and the “cell growth inhibition activity, IC50” value [6] is reported as 71.9 nM. For the same molecule, the IC50 [7] was 54 nM.

Source: patent publication US20090298765A1 (Takeda / Millennium, published 2009)
